From US20220064276A1 (SCHOLAR ROCK, published 2022)
Substitutions are numbered along the chain they refer to. Like-named read-outs stand apart in the source and are kept apart here.

B1: SR-AB22 (antibody, IgG1, V domains shown)
VH: QVQLVESGGGVVQPGRSLRLSCAASGFTFRSYVMHWVRQAPGKGLEWVAVISHEGSLKYYADSVKGRFTISRDNSKNTLYLQMNSLRAEDTAVYYCAVPRIAARRGGFGYWGQGTLVTVSS
VL: NFMLTQPHSVSESPGKTVTISCTRSSGNIDNNYVQWYQQRPGSSPTTVIYEDNQRPSGVPDRFSGSIDSSSNSASLTISGLKTEDEADYYCQSYDSDNQGVVFGGGTKLTVL
notes: Cycle 2, lineage SR-AB14
B2: SR-AB47-HuFab (Fab, V domains shown)
VH: B1 VH with L57G, V98R, Y110S
VL: B1 VL with N31Y, Q54V, S96Y, G100A
notes: Human Fab; also called SR-AB47 Fab
B3: SR-AB49-HuFab (Fab, V domains shown)
VH: B1 VH with L57G, V98R, Y110S
VL: B1 VL with N31Y, Q54V, S93G, S96W, N98T
notes: Human Fab; also called SR-AB49 Fab
B4: SR-AB43-HuFab (Fab, V domains shown)
VH: B1 VH with V98R
VL: B1 VL with N31Y, Q54V, G100R
notes: Human Fab; also called SR-AB43 Fab
B5: SR-AB62 (antibody, IgG1, V domains shown)
VH: QLQLQESGPGLAKPSETLSLTCTVSGGSIRSSSYYWGWIRQPPGKGLEWIGSISYSATTYYNPSLKSRVTISVDTSKNQFSLKLSSVTAADTAVYYCASDPSYDSAAGMDVWGQGTTVTVSS
VL: DIQMTQSPSSLSASVGDRVTITCRASKVISSYLNWYQQKPGKAPKLLIYYASSLQSGVPSRFSGSGSGTDFTLTISSLQPEDFATYYCQQSNDWPFTFGGGTKVEIK
notes: Cycle 3, lineage SR-AB24
B6: SR-AB64 (antibody, IgG1, V domains shown)
VH: B5 VH with A12V, S99G, A106I, D110Q
VL: B5 VL with K27Q, V28S, S31Y, Y50S, L54R, S91G, N92F, W94F, F96L
notes: Cycle 3, lineage SR-AB26

Legend:
[1] = biological target: T1, mouse LTBP1-proTGFβ1 complex (mouse, UniProt Q8CG19 339-1712; P04202 30-390); experiment: cell-based or functional assay
T1 sequence (Q8CG19 339-1712 limits assumed, chain 1 of 2): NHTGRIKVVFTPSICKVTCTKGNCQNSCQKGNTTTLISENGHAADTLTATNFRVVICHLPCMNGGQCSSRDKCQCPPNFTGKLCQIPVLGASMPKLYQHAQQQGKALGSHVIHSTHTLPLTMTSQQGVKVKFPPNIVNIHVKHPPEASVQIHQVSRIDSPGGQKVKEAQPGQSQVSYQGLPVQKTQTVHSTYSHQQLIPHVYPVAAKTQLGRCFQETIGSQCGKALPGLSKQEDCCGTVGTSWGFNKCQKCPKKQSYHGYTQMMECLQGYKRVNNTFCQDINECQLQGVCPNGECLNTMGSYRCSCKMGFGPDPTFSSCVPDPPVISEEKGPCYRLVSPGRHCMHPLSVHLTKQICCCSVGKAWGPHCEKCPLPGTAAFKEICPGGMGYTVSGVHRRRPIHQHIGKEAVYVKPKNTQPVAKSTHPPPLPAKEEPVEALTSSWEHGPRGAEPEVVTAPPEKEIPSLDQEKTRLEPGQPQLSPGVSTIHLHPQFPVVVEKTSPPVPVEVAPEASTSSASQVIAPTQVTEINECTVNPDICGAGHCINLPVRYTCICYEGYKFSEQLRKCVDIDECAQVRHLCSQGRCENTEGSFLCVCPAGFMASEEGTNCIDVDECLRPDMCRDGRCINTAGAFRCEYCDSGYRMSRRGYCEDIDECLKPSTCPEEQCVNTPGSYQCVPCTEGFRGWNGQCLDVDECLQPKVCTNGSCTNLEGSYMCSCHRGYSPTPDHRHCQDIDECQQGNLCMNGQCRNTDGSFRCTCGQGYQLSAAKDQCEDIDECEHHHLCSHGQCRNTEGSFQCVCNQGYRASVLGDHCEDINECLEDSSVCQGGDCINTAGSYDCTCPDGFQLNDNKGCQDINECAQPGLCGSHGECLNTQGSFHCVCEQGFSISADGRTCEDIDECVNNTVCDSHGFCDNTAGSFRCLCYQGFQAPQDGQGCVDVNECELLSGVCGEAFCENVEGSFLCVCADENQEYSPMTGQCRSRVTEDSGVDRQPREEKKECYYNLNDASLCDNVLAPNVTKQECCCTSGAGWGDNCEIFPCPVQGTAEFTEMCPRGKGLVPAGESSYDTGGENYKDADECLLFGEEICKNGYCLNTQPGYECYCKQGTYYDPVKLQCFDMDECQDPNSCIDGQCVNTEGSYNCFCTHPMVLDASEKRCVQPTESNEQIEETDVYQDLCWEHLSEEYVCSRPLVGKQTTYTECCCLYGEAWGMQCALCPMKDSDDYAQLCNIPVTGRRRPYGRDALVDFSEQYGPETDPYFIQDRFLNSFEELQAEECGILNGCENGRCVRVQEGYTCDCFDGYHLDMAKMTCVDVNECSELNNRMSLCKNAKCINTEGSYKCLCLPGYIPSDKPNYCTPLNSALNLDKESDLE
T1 sequence (P04202 30-390 limits assumed, chain 2 of 2): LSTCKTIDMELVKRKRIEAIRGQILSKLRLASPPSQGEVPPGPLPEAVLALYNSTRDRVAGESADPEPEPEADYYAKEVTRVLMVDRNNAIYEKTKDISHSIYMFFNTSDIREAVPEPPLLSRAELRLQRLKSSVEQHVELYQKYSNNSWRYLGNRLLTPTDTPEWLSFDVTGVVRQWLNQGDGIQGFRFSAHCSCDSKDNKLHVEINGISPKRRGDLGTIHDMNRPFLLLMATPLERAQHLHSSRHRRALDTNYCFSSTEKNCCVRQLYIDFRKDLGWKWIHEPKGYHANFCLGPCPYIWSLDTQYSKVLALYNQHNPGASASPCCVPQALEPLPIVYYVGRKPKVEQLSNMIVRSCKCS

[2] = biological target: T2, LTBP-proTGFβ1: transfected human proTGFβ1 presented by endogenous LTBP1/3 of LN229 cells (human); experiment: cell-based or functional assay
T2 sequence (P01137 30-390): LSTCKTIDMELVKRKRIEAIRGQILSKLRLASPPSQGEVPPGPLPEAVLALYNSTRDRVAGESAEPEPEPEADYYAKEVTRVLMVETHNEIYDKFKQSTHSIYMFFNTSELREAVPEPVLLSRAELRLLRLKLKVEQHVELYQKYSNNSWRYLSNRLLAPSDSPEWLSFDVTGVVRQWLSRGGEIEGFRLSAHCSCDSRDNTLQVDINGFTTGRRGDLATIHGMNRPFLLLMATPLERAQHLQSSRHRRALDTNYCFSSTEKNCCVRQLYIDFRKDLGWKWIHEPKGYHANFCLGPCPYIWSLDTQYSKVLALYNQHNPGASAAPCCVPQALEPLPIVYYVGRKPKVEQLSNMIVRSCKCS

[3] = biological target: T1, mouse LTBP1-proTGFβ1 complex; experiment: Octet BLI, IgG captured
Procedure: (§1) LTBP complex-specific antibodies from the first round of affinity maturation/optimization (SR-AB14, SR-AB16, SR-AB17, SR-AB18, SR-AB19) were selected for a second round of affinity maturation/optimization (i.e., CDR-H3 mutagenesis as described herein) and particular progeny antibodies (SR-AB20, SR-AB21, SR-AB22, SR-AB23, SR-AB24, SR-AB25, SR-AB26, SR-AB27, SR-AB28, and SR-AB29) were assessed for their ability to bind various proTGFβ1 constructs. Binding affinities of the optimized antibodies were measured by Octet against human LTBP1-proTGFβ1, human LTBP3-proTGFbl, mouse LTBP1-proTGFβ1, mouse LTBP3-proTGFbl, and GARP-proTGFβ1 complexes, essentially as described in Example 6. […] The antigens were allowed to associate for 3 minutes followed by a 5-minute dissociation. Kinetics buffer (ForteBio®) was used throughout the experiment, and KD was determined using a 1:1 fitting model for each antibody antigen pair.

[4] = biological target: T3, human LTBP1-proTGFβ1 complex (human, UniProt Q14766 347-1721; P01137 30-390); experiment: Octet BLI, IgG captured
T3 construct: Large latent complex: one presenting molecule disulfide-linked to a proTGFβ1 dimer; also called Hu LTBP1-proTGFβ1; huLTBP1 proTGFβ1
T3 sequence (Q14766 347-1721 limits assumed, chain 1 of 2): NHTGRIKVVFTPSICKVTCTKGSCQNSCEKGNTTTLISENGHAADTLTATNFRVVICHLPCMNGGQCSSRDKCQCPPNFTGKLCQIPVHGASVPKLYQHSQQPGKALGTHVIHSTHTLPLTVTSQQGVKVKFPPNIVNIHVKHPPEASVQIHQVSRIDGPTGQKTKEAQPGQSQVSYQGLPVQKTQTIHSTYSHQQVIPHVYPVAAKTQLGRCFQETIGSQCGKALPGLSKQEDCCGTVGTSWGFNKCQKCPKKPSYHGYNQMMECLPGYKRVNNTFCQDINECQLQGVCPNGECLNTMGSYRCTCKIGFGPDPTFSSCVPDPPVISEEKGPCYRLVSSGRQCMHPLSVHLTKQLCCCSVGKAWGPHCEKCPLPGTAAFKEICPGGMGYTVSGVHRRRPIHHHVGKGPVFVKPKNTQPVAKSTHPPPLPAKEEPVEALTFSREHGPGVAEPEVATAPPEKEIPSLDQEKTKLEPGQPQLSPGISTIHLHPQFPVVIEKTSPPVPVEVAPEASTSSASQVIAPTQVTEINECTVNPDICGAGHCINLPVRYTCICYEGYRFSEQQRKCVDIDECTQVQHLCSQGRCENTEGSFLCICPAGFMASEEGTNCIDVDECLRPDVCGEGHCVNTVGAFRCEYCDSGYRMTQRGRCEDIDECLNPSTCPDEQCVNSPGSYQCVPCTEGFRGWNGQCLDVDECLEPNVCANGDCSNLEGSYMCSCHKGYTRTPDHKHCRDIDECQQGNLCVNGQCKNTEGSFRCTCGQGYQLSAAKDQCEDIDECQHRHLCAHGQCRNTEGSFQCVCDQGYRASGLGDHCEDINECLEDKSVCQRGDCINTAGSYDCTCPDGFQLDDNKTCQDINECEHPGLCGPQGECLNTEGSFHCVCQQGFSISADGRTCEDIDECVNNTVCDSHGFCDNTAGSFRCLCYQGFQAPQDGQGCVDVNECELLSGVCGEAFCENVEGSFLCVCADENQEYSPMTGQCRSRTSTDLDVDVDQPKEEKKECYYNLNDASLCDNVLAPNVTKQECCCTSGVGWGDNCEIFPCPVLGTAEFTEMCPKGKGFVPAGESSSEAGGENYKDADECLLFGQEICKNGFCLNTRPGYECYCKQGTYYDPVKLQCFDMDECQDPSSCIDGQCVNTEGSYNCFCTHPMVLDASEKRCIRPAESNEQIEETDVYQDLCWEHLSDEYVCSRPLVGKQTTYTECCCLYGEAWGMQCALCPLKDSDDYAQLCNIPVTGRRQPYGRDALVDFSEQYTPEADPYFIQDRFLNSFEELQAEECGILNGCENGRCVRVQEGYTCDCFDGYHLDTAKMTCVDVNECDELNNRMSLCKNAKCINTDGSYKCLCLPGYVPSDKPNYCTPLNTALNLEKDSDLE
T3 sequence (P01137 30-390 limits assumed, chain 2 of 2): as the sequence (P01137 30-390) above
Procedure: as §1

[5] = biological target: T4, mouse LTBP3-proTGFβ1 complex (mouse, UniProt Q61810 41-1245; P04202 30-390, limits assumed); experiment: Octet BLI, IgG captured
T4 construct: Exemplary entries; also called Mo LTBP3-proTGFβ1; Murine LTBP3 proTGFb1
Procedure: as §1

[6] = biological target: T5, human LRRC33-proTGFβ1 complex (human, UniProt Q86YC3 19-650; P01137 30-390, limits assumed); experiment: SPR Biacore 8K, Fab over captured antigen, Rmax fixed
T5 construct: Exemplary entries; also called huLRRC33 proTGFb1; HuLRRC33-ProTGFb1
Procedure: (§2) These experiments were performed using the Biacore 8K using the method “multi-cycle kinetics/affinity using Biotin CAPture kit.”
(§3) Data collection rate was set to 10 Hz and the Biotin CAPture step was performed for 300 seconds with a flow rate of 2 μL/minute. The Biotin CAPture reagent was used after a 1:5 dilution in 1× Biacore running buffer. Biotinylated ligands (the various complexes of TGFβ1) were utilized at a concentration of 10 nM and were immobilized to the sensor chip for 180 seconds with a flow rate of 10 μL/minute. […] Analyte contact time was 120 seconds and the dissociation time was 900 seconds. The regeneration cycle utilized was 120 seconds with a flow rate of 10 μL/minute.
(§4) The evaluation method used was “multi-cycle affinity using capture” and a 1:1 binding model was used. […] Global fits were utilized for every KD determination.

[7] = biological target: T1, mouse LTBP1-proTGFβ1 complex; experiment: as above
Procedure: as §2, §3, §4

[8] = biological target: T6, human LTBP3-proTGFβ1 complex (human, UniProt Q9NS15 44-1303; P01137 30-390, limits assumed); experiment: as above
T6 construct: Exemplary entries; also called Hu LTBP3-proTGFβ1; huLTBP3 proTGFb1
T6 sequence (Q9NS15 44-1303 limits assumed, chain 1 of 2): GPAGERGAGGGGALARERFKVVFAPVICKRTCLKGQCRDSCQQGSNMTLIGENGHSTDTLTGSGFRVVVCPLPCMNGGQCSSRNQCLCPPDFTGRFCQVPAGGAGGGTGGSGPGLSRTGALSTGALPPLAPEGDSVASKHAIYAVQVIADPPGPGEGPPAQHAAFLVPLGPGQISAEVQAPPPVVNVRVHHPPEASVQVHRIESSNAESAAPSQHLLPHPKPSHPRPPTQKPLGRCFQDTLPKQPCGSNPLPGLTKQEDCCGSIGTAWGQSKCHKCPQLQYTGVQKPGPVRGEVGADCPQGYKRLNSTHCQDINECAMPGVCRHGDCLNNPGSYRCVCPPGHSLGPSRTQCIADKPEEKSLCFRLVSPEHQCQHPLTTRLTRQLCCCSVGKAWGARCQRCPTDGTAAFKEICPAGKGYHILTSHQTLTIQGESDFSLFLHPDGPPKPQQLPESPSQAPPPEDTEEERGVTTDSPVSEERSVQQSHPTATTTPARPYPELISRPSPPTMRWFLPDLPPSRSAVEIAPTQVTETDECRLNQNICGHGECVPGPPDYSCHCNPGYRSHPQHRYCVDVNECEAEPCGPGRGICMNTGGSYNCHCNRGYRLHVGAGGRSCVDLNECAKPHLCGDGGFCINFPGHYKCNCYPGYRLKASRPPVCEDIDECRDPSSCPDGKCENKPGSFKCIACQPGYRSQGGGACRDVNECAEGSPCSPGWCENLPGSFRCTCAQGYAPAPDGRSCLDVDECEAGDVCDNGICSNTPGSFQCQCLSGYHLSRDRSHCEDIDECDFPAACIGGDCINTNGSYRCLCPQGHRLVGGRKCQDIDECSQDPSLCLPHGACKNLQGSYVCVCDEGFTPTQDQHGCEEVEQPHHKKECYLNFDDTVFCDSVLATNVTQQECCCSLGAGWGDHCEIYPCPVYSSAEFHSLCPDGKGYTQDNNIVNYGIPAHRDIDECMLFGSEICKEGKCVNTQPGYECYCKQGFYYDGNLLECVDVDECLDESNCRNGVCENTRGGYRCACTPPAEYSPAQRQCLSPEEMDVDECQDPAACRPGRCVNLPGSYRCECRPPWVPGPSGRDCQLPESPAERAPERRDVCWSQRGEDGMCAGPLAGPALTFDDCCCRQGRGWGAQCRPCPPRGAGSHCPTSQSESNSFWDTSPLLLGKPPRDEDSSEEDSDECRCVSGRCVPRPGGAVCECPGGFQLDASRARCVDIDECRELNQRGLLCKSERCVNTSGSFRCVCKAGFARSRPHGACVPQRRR
T6 sequence (P01137 30-390 limits assumed, chain 2 of 2): as the sequence (P01137 30-390) above
Procedure: as §2, §3, §4

[9] = biological target: T3, human LTBP1-proTGFβ1 complex; experiment: as above
Procedure: as §2, §3, §4

[10] = biological target: T4, mouse LTBP3-proTGFβ1 complex; experiment: as above
Procedure: as §2, §3, §4

[11] = biological target: T7, human GARP-proTGFβ1 complex (human, UniProt Q14392 18-627; P01137 30-390, limits assumed); experiment: as above
T7 construct: Exemplary entries; also called Hu GARP-proTGFβ1; huGARP proTGFb1
Procedure: as §2, §3, §4

[12] = biological target: T8, mouse GARP-proTGFβ1 complex (mouse, UniProt G3XA59 18-628; P04202 30-390, limits assumed); experiment: as above
T8 construct: Exemplary entries; also called MuGARP-ProTGFb1; Mu GARP-ProTGFβ1
Procedure: as §2, §3, §4

[13] = biological target: T9, mouse LRRC33-proTGFβ1 complex (mouse, UniProt Q8BMT4 20-651, limits assumed); experiment: as above
T9 construct: also called MuLRRC33-ProTGFb1; Mu LRRC33-ProTGFβ1
Procedure: as §2, §3, §4

[14] = biological target: T3, human LTBP1-proTGFβ1 complex; experiment: SPR Biacore 8K, Fab over captured antigen
Procedure: (§5) A Biacore 8K system was employed to determine the monovalent binding affinity and the kinetic parameters for antigen binding of test antibodies. Association and dissociation kinetics of Fab fragments SR-AB42-HuFab, SR-AB63-HuFab and SR-AB43-HuFab to antigen complexes were measured, and resulting ka, kd and KD are provided below. Briefly, the binding kinetics were evaluated by surface plasmon resonance using Biacore 8K (GE Healthcare). Biotinylated capture antigens were immobilized to the chip (10 nM, ˜200 RU loading). A Biotin CAPture sensor chip was used to capture the biotinylated antigens. […] 0 nM was used as a reference. […] 0 nM was used as a reference. Multi-cycle kinetics was employed where each analyte concentration was injected in a separate cycle and the sensor chip surface was regenerated after each cycle. A11 the assays were carried out in freshly prepared 1× HBS-EP+ buffer (10 mM HEPES, 150 mM NaCl, 3 mM EDTA, 0.05% Tween20, pH 7.4). Data were fit globally to a 1:1 binding model to obtain the kinetic parameters. The sensorgram for 0 nM analyte concentration was used as reference.

[15] = biological target: T4, mouse LTBP3-proTGFβ1 complex; experiment: SPR Biacore 8K, Fab over captured antigen; mean of 2
Procedure: as §5

[16] = biological target: T1, mouse LTBP1-proTGFβ1 complex; experiment: Octet BLI, IgG captured; remark: listed apart in the source
Procedure: (§6) Binding affinities of the optimized antibodies were measured by Octet against human LTBP1-proTGFβ1, human LTBP3-proTGFβ1, mouse LTBP1-proTGFβ1, mouse LTBP3-proTGFβ1, and GARP-proTGFβ1 complexes, essentially as described in Example 6. […] The antigens were allowed to associate for 3 minutes followed by a 5-minute dissociation. Kinetics buffer (ForteBio®) was used throughout the experiment, and KD was determined using a 1:1 fitting model for each antibody antigen pair.

[17] = biological target: T6, human LTBP3-proTGFβ1 complex; experiment: Octet BLI, IgG captured
Procedure: as §6

[18] = biological target: T3, human LTBP1-proTGFβ1 complex; experiment: Octet BLI, IgG captured; remark: listed apart in the source
Procedure: as §6

[19] = biological target: T4, mouse LTBP3-proTGFβ1 complex; experiment: Octet BLI, IgG captured; remark: listed apart in the source
Procedure: as §6

[20] = biological target: T1, mouse LTBP1-proTGFβ1 complex; experiment: cell-based or functional assay; remark: listed apart in the source
[21] = biological target: T2, LTBP-proTGFβ1: transfected human …; experiment: cell-based or functional assay; remark: listed apart in the source
[22] = biological target: T7, human GARP-proTGFβ1 complex; experiment: Octet (bio-layer interferometry), response at 200 nM antigen; 0.1 nm cutoff designates meaningful binding
Procedure: This experiment was performed at 200, 100, 50, and 25 nM human GARP proTGFb1 and human LTBP1 proTGFbl. […] Surface plasmon resonance (SPR)-based assays

[23] = biological target: T1, mouse LTBP1-proTGFβ1 complex; experiment: cell-based or functional assay; remark: listed apart in the source
[24] = biological target: T2, LTBP-proTGFβ1: transfected human …; experiment: cell-based or functional assay; remark: listed apart in the source

Binder	Kd [6] [nM]	Kd [7] [nM]	Kd [8] [nM]	Kd [9] [nM]	Kd [10] [nM]	Kd [11] [nM]	Kd [12] [nM]	Kd [13] [nM]	Kd [14] [nM]	koff [14] [s⁻¹]	kon [14] [M⁻¹ s⁻¹]	Kd [16] [nM]	Kd [17] [nM]	koff [17] [s⁻¹]	kon [17] [M⁻¹ s⁻¹]	Kd [18] [nM]	Kd [19] [nM]	binding result [22]	also measured
B1																			IC50, mLTBP1 assay (CAGA12 luciferase) [1]: 1.39 nM; IC50, endogenous hLTBP assay (CAGA12 luciferase) [2]: 4.62 nM; Kd [3]: 2.43 nM; Kd [4]: 1.88 nM; Kd [5]: 1.56 nM
B2	6.66	0.198	0.33	0.217	0.4	6.5	1.95	9.16	0.074	0.000136	1.84e+06								
B3	7.7	0.379	0.58	0.319	0.65	6.55	2.82	6.95	0.17	0.000138	809000								
B4									0.276	0.000284	1.03e+06								Kd [15]: 4.43 nM
B5												0.609	0.368	7.47e-05	203000	0.486	3.37	no binding (tested: 200 nM)	koff [18]: 6.82e-05 s⁻¹; kon [18]: 140000 M⁻¹ s⁻¹; IC50, mLTBP1 assay (CAGA12 luciferase) [20]: 0.386 nM; IC50, endogenous hLTBP assay (CAGA12 luciferase) [21]: 8.68 nM
B6												1.03	0.471	9.18e-05	195000	0.467	2.85	no binding (tested: 200 nM)	IC50, mLTBP1 assay (CAGA12 luciferase) [23]: 0.268 nM; IC50, endogenous hLTBP assay (CAGA12 luciferase) [24]: 3.12 nM
